Publication PMC3987992

Columns and labels:
Test in all cases: BLI
[1] = molecular target: a panel of eight affinity-matured monoclonal antibodies against the same HIV-1 gp120 antigen but with different epitopes
PGT135 Fab (human) = molecular target: PGT135 Fab (human)
[2] = molecular target: the same heavy chain paired with four different light chains
CR9114 Fab (human) = molecular target: CR9114 Fab (human)
[3] = molecular target: four VH/VL combinations (the same germline light chain paired with three different heavy chains)

B1: recombinant Protein M TD, residues 74-468 (domain or fragment)
chain: SLSLNDGSYQSEIDLSGGANFREKFRNFANELSEAITNSPKGLDRPVPKTEISGLIKTGDNFITPSFKAGYYDHVASDGSLLSYYQSTEYFNNRVLMPILQTTNGTLMANNRGYDDVFRQVPSFSGWSNTKATTVSTSNNLTYDKWTYFAAKGSPLYDSYPNHFFEDVKTLAIDAKDISALKTTIDSEKPTYLIIRGLSGNGSQLNELQLPESVKKVSLYGDYTGVNVAKQIFANVVELEFYSTSKANSFGFNPLVLGSKTNVIYDLFASKPFTHIDLTQVTLQNSDNSAIDANKLKQAVGDIYNYRRFERQFQGYFAGGYIDKYLVKNVNTNKDSDDDLVYRSLKELNLHLEEAYREGDNTYYRVNENYYPGASIYENERASRDSEFQNEILKR
**Q.** With B1 as the binder, how does the Kd [1] read?
**A.** 0.7 to 3.8 nM

**Q.** What about the Kd (PGT135 Fab (human)) of the same binder?
**A.** 3.7 nM

**Q.** And the Kd [2]?
**A.** 1.8 to 2.3 nM

**Q.** And the Kd (CR9114 Fab (human))?
**A.** 1.9 nM

**Q.** And the Kd [3]?
**A.** 2.1 to 4.8 nM
